# Legend:
# Assay in all cases: cell-based or functional assay
# [1] = molecular target: HIV-1 Env of pseudovirus 235-47 (clade CRF02_AG) (HIV-1)
# [2] = molecular target: HIV-1 Env of pseudovirus BJOX025000.01.1 (clade CRF01_AE (T/F)) (HIV-1)
# [3] = molecular target: HIV-1 Env of pseudovirus C3347.c11 (clade CRF01_AE) (HIV-1)
# [4] = molecular target: HIV-1 Env of pseudovirus R2184.c04 (clade CRF01_AE) (HIV-1)
# [5] = molecular target: HIV-1 Env of pseudovirus T251-18 (clade CRF02_AG) (HIV-1)
# [6] = molecular target: HIV-1 Env of pseudovirus X2088_c9 (clade G) (HIV-1)
substance,measurement,setting,value
10-1074 (antibody),"IC50, titer in TZM.bl cells",[1],0.05 mg/L
same,"IC80, titer in TZM.bl cells",[1],0.163 mg/L
same,"IC50, titer in TZM.bl cells",[2],> 50 mg/L
same,"IC80, titer in TZM.bl cells",[2],> 50 mg/L
same,"IC50, titer in TZM.bl cells",[3],> 50 mg/L
same,"IC80, titer in TZM.bl cells",[3],> 50 mg/L
same,"IC50, titer in TZM.bl cells",[4],> 50 mg/L
same,"IC80, titer in TZM.bl cells",[4],> 50 mg/L
same,"IC50, titer in TZM.bl cells",[5],1.08 mg/L
same,"IC80, titer in TZM.bl cells",[5],7.39 mg/L
same,"IC50, titer in TZM.bl cells",[6],0.003 mg/L
same,"IC80, titer in TZM.bl cells",[6],0.014 mg/L

# — US20230002480A1
